In a protein production outcome set (Wang et al. 2014):

Experiment: label from the status in PepcDB records

| Sequence | protein production |
| --- | --- |
| MIVAVESLDTSKKRKLHAEESDLLPLPKHFCSEHQASLVNSSCPSSVIDYAECSYAMENTKTSDEASSSASFTGPSLYMFKDSIYSTGSSSSGYAATSSIEQCFSKVDHKTQEDTQDFTHMEFIYHDSEFAVEDLQEVLNPVESYILSSARWSVSNQDSKEATTKPTIDQEFEQYFSTLMM | failed |
| LQESEARFQAFMNNSPSASWITDDHGRMLYLSQTYVRTFQLPFDKVEDVTGKTVFELYTPEVAQPFLDNIHRVAQTQQILETIEKAPRLDGTLGDFLVYKFPLPATTGELFIGGVAVDISDKIRAEQALQKLNQELEAR | not failed |
| MDKFYHFLTLTGIGLYWFLVAGVTLRVVLKRRAVSVSLAWLMIIYILPVLGVACYFLFGELNLGRKRAERAKEMFTPFAKWFSQLNDCHAHMPETMGRHIYRIDELCNNRLGLPALSGNTLSLQQSPDEILHSIIEDIENAKTSIRMVFYIWHPGGLADSVASALIQASKRGVDVKLLLDSAGSPRFFRSPWYKMMKDSGIEVIQALEVKMWRMFLRRLDLRQHRKIIVIDDEIAYTGSMNLVDPAYFKQSSGVGRWIDIMVRVTGPTVNVLSAIHCWDWEVETGERYLPKLPECKIDNSKYQHPIQVVPSGPGMPEYLIYQVLTLAINQANRSVRITTPYFVPNTDLLETLKMTAQRGIDVELIIPHKNDSLMVQWASRAFYSELLAAGVKIYEFYGGLLHTKSVVIDDQFCLVGTVNMDMRSLWLNFEVTLAVDDEEFTKQLSWLQDGYIKQSHPVVLDEWEKRSLYSRFLERVFYLFNPLL | failed |
| MPRVDHGSPQAGPPAPCVGILLAGGQGRRFAAASGGQDKLLARLADGTAVAVRAAAALREATDAVVAVVRPESAVLAALLRGQGCHVLESEQAREGMGASLAAAARFLLAGQVPDMPERADVCLVALADMPWVRRDTLSAVRAAACADGITVPVHQGRRGHPVAFGRSLWGELAALRGDVGARELLRRHRVAAVEVDDPGVAADVDTPGDLAGDRALEHHHHHH | failed |
| MTARSNSSSSGTSSNKRPRTSGSSPSSKSRRGSGSGPAGRSRKTTSAVSYPTNSARRASETSEERTGSAFRAVGSGLGTLVSATAHGVGSVTRAVARTLHREHDDEEFDAVDDAFSSEETVVTNRKRKPSRMTKTKKNLFDDDIEDQHDDFDEEAGLGRFTLALSDESVDSIGLILIALAFIVGASVWFDIAGPIGAAIAAGVHFVIGAGALILPLALVAIAIALMLGKLPEPDHQPRLVLGTSVIAISMLGLIHLFAGDPADWQGRTHAGGIVGAYSGGMIARGFSVYLAIPLLVLVIIYGALRINNVTVKELFEAIQDTVQGLRDDSEDEDDPLYADADAEIEARSRGEKLHRPQPRREKPRPAPERRRMSAPLVDDVDEDVVSRPLFDDPSTAQSQKSSVETQRAARDVSETDEFPAVDEPTVVVPRKPSAPRMSLPQTPVTDVEAAADVVAAGRKAVQDAVKARESHNVGAALAPSTPAQPYEAPESHYAVPSTQLLIPGKEAKTHSEANDRMIEAISDVFAEFKVDAHVTGFSRGPTVTRYEVELGPGVKVSKITNLQSNLAYAVATDNVRLLTPIPGKSAVGIEVPNTDREMVRLGDVLNSESVHSDHDPMLIGLGKDIEGDFVAHSVQKMPHLLVAGSTGSGKSAFVNSLLVSLLTRATPEDVRLILVDPKMVELTPYEGIPHLITPIITQPKKAAAALQWLVEEMEQRYMDMKSTRVRHIKDFNRKVKSGEIQAPLGSQREYHPYPYIVCVVDELADLMMTAPKEIEDSIVRITQKARAAGIHLVLATQRPSVDVVTGLIKTNVPSRLAFATSSLTDSRVILDQAGAEKLIGMGDGLFIPQGGRPQRIQGAFVTDEEIQAVVDAAKAQGEPNYTEGVTEDKAAEAKKDIDADIGNDLEDLLQAVELVVTAQLGSTSMLQRKLRIGFAKAGRLMDLMETRGIVGPSEGSKAREVLVKPEELETTLWMIKGAKPEDAPKEDDWQSADSGVSDASDPSHGERAAYNPSSNAF | failed |
| MPPSTLGLTPPFDATLLTTRPPCSRRHISRSPGARRPSPGLLTCLQPNVCPRARSAFLAISNGSRQQSGPARADAFHPVSISPFYFYSDSYEDVFMPITTKLKAVSLGVSLALAGLLVGCNQNDSDPLVKDDAYYRGQAEAMVAKLTLGEKLDLLSGPGYGSANGAINVKQDVPGVAGYINGVLRSADGIDIPALKLADGPAGVRINANRDGDSASYYATAWPIGSLLASSWDVKLVKAVGEAMGDEVRQYGVDILLAPGMNIQRNPLNGRNFEYYSEDPLLTGKIGAAMVNGVESNGVGTTIKHYFGNNSETNRNQINDIGEPRTFREIYLRGFQIAVDEAQPWAVMTSYNKVNGTYVNERRDAVTDLLRGEWKFDGLVMSDWFAGDVANNAYKQVLAGQDLIEPGNVKEQLQQSIEHGDLDEAKVNEAAIHILTQVMKSPSYNQLAISNSPDLIAHAKLARQAGAESMVLLRNDAAALPLAASSTLASFGINQINTYKGGTGSGDVNAASTTTIAQGLAARFPVNEALQSYYRDFYENNKVYHEGQFGAKGYYTCAEAPISGDLAALIANAATTQQAAVISIGRQAGEGADRSSGKGDYLLGDDERALIDAVSSAFHAQGKKVVVVLNVNGVIDTAQWSDKVDGILLAYMAGQETGHAVADVLSGAVNPSGKLAQSFPHSYASVPSAGTFPGEDTDGDGEPDDLYYNEGIYVGYRYYSTFEQAVSYPFGFGLSYTSFSYTSPAIASNTLEGGSAGNLVLTATITNTGAVAGKEAAQVYVTAPEVKLKKPLIELKAFAKTAQLAPGASEQLSFTIPASILASFDEASNQWIVEPGRYSAYISPSSDVSASTPVSFTVSKEIVVSNTTPGALALPAGVDPASVTTITR | failed |
| APKTFMFGVSKVEEPKTVSFGTGIKETTATSSTEATAPTPAAAAPAPVQFVFKAPTTATTASSLTTTISTTSNAPALGGFSFGAPSSSSTVSSSTTSTSANPAAVKPMFSWSGAGSAVSSTSSSQQPVAKAPTLGFGVSSSTVTTTTTSTKVFAFTPASGLDPAAATSAPAAGAGFSFGSQSKPATTQNTGTFFFGQPTAVAPATPTNPSVSSIFGAPATSTTASTSVSATTSTSTANAIASSFAPTSTPQLFGNWGEKKTDLTTFGASSGSGTTTTPSFGWSSNGDAAKSNSAAVGSAAVPSSSASTMATPIFGSSSMFGPSSSSNNTTSTSTTSLPFGSAATTAATTPAGGNAALTGLFGNVGNSLAGVGAPVATTPAATAAAPLTNIFGNPTPVAAAAPVFGSGSTIPSAGFGAPAAAAPLAAPALPGAFN | failed |
| MKFYKKLIECIILLLFFVVFTLFIKYYFKPFLSIVILTILCSPIYNLLSKHKVFGDRINAVLSIIVINVMIFLAIFLIGNFIAQKLNIYLQHYHNVLDINKLPIIGESNVNILLNKINVFVDKLFNADFFKKSAVYTTDGILTYFVSIMSVYFILVDKYDIVNLAEKLFTKNKVHILMKKFSDIKSLLRVETFLVLITTIQTIIGFFVLGIEDCFMLGIICGILDILPYVGTIIIFIPLIIYKMYEKNYVTIFGLIALYIFLQVSRQIMETNFMSSKLKIHPLIILISVYIGIKAFGIIGLFIAPIYVITAKEIILSS | failed |
| MAVNACLSPPEMMAVRPGEGVPNSKSTQGKTRLYLTKPSWIVRTQSGAKTCMKSKAKGRCVICHGSGRVDCFNCCGKGRTNCVDVEMLPRGEWPKWCKSCGGSGLSDCSRCLGTGERASFFFLWFDILIVMSSVALPAMSCRSSGEQVKEIRVCTNRTCRRQGSFQILETLTALAPPELRVTHCACLGRCGSGPNLVALPQGLILRHCATPSRAAEILFSLCGDGREASSSSAVTDALTALALTNNALSQIDAGNFSEAEALLTQALELKPYGGLHRIFKHRSVAKLGMLDYSGALEDISQALALAPNYSEPYICQGDVYVAKGQYDLAEKSYLTCLEIDPSLRRSKPFKARIAKLQQKVVELDVT | failed |
| PGGPEEQWQRAIHERGEAVCPTCNVVTRKTLVGLKKHMEVCQKLQDALKCQHCRKQFKSKAGLNYHTMAEHSAKPSDAEASEGGE | not failed |
| MQSPPHDPASALAIRNHYRQSQSRAARLRLLVDTGQELIQLPPEAMRKCVLQRACAFVAMDHGLLLEWGADNGVQTTARHGSKERLSTLETTADPLAIGPQWLERPGTHLPCVLLLPLRGADEGSFGTLVLANSVAISAPDGEDIESLQLLATLLAAHLENNRLLEALVARDRTMSQLVRQLFTAQEDERKRVAYDLHDGLAQTLAGLHQRLQGFAGRCPELPAQLDADLQAILKLAQHCVGEGRQLISGLRPAVLDDFGLWQAVDKEADRLREAGIIVQWTSQSLERLPSHLEIALFRIAQEGINNVLKHANASCVELALELSDGNVSLRLQDNGRGFITEKPINGTGVQKLGLVAMQERASLLGGRLTCVSRPGRGTRLRTIVPFTADKAIT | failed |
| MDVAGDEAGGTAGARDRVADRAAGRAVALGAIALLVAGALEAWAVLGGLEPARFWDTPSYLHDAGHLARGELPPLGLRMPGYPAFVALVGGRGPDLGRVAGAQAALWVASVVLAYALVRRLTGSLAAALAAGLAALSFVDLLFMAVTIYSETLCLALVCGAALATVAAFGGRTRAAVAGAGLLWAAAALVRPIFLASAGVYLLAALLLAARRALARRDVALAWAAVAAVVLAMASLNLARAGRFEFSPGAGLSLLNHVGHPAVYRHLPPDQAPIREVYERLAAEQGREWIGWWRAVGPLAQVVAPELAEAAGRLEVTAAEPVAERVALRALAAVPGGWLRVWADAAEQLLGRFALQLGWSARPDGPPQWPPGAWQHRAARDAEAAWRVGMPWLSAAALLLPPLALWLRARRRRRGDDVPGPAGAGAALATLWAIAGVNAGLSPALEPWAGQMRYRFPIQHLLLGLAIGAAVLAARALRPARGLAGAGSPAPGAGAARRT | failed |
| MGFHDYIEETKNIFNRLYPDNKITDIDYEGPTIVVYTKDPELFAKRDDLVRQIAQEIRRRIAIRSDPSILLPEDQARESIEKIIPKEAGLEDIYFEPDTGEVIIELDEPSIVTARGTDYVQEIKSRTQWSPRIVRAPPMYSRTVKEVREFMREVKQERREFLHNLGVKLSGPPMVGETWVRLTALGGHSEVGRSATLVSTKNSKVLIDCGMMNVGPDADPWDAAPYLYVPEVQPLSTIDAVILTHAHLDHSGLLPLLFKYGYDGPVYMTPPTRDLAALLQNDYIKVARMEGGKVPYESKYIREELKHTITLRYGETTDITRDMRLTFYNAGHILGSASGHLHIGDGLYNVVLSGDVKFEKTWLFNPANNKFPRAETFMTESTYGGRDDYSFTREEATQTLIDVINRTHDRGGSVLIPVFAVGRSQEVMIVLEDAMRNGRIPQMDVYLDGMIMEAPAIHAAYPEYLNKELREAIMVKKENPFLSPIFKKVETRDRGRK | failed |
| MTPQIATILGLVIMFIVATALPINMGAVAFALAFIIGGVWVGLEGKEVLAGFPGDLFLTLVGITYLFAIAQKNGTIDLLVHWAVRAVRGRIVAIPWVMFVITGLLTAFGALGPAAVAIIGPVALRFAKQYRINPLMMGLLVIHGAQGGGFSPISVYGGITNKVVEKAGLDVSEMAVFLTSLGFNLMMAIICFCAFGGLKLMRRQELSLADAQYVAVAGDQASHRGFAIEGHGALVAPGGGTLSTDPLALEAVSITRDRVITLIGLLGLGVAALIYNLNVGLVSITVAVALALISPNAQKGAVDGISWSTVLLISGVVTYIAVLEKSGAVDYIGTGVSHIGMPLLGALLVCYVGGIVSAFASSAAVLGATIPLAVPFLMQGQLGAAGVICALAVSSTIVDVSPFSTNGALVVASAAKEERDGLFRRFLIYSGLVVLLGPLAAWLVFVVPGWL | failed |
| MKVFITGGTGFVGSAVVQELVANGFEVVGLARSETSAQKLISWGAQPVRGSLTSLSTLATAAAQADAIIHLGFNNDFRHFFQAGAMDRRAIETMGRAISGTNKPLVVTYGTTGIRKHVETEHEVADTGLLKWLTPRKSEIVARQLMAQNINAFVVRLSPAVHGAGDMGFTRTVIERAKKSHRAEYFGLGTHAWSAVHRLDAAHLFYLVTMYGLEHPTTNERVFNAVAEESITIAAIARTISRKLNVPLKAKYNPLSFGDTAMLYLINCPTSSQLTRQILGWVPVQPDLLTDISSSRYLEHHHHHH | failed |
| MRLLAVFVSSRLSPEDPLYARWVRYGEVLAEEGFGLACGGYQGGMEALARGVKAKGGLVVGVTAPAFFPERRGPNPFVDLELPAATLPQRIGRLLDLGAGYLALPGGVGTLAELVLAWNLLYLRRGVGRPLAVDPYWLGLLKAHGEIAPEDVGLLRVVADEEDLRRFLRSL | not failed |
